pEC50: −log10 of the molar value. Where two headings read alike, the source gives them in different places.
Legend:
[1] = target: cynomolgus monkey PD-L1 on CHO-K1 cells overexpressing cynomolgus monkey PD-L1 (cynomolgus monkey) (UniProt G7PSE7); test: flow cytometry on CHO-K1 cells overexpressing cynomolgus monkey PD-L1 (CHO-K1/cynoPD-L1); isotype control, EC50 given as N.A.
[2] = target: human PD-L1 on CHO-K1 cells overexpressing human PD-L1 (human) (UniProt Q9NZQ7); test: flow cytometry on CHO-K1 cells overexpressing human PD-L1 (CHO-K1/hPD-L1); isotype control [continued) D]
Chain of human PD-L1 on CHO-K1 cells overexpressing human PD-L1 (human) (Q9NZQ7 19-290): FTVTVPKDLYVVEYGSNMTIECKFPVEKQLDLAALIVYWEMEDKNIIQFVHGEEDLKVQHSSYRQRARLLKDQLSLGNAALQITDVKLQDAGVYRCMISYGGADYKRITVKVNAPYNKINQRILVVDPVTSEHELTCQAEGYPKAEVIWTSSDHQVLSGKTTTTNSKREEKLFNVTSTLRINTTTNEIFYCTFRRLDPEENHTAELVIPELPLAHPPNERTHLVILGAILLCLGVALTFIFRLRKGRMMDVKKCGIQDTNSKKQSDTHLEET

[3] = target: human PD-L1 on CHO-K1 cells overexpressing human PD-L1 (human) (UniProt Q9NZQ7); test: flow cytometry on CHO-K1 cells overexpressing human PD-L1 (CHO-K1/hPD-L1); isotype control, fit value printed for a curve that stays at the baseline [continued) D]
[4] = target: cynomolgus monkey PD-L1 on CHO-K1 cells overexpressing cynomolgus monkey PD-L1 (cynomolgus monkey) (UniProt G7PSE7); test: flow cytometry on CHO-K1 cells overexpressing cynomolgus monkey PD-L1 (CHO-K1/cynoPD-L1); isotype control, EC50 given as N.A.; remark: listed apart in the source
[5] = target: cynomolgus monkey PD-L1 on CHO-K1 cells overexpressing cynomolgus monkey PD-L1 (cynomolgus monkey) (UniProt G7PSE7); test: as above; remark: listed apart in the source
[6] = target: human PD-L1 on CHO-K1 cells overexpressing human PD-L1 (human) (UniProt Q9NZQ7); test: flow cytometry on CHO-K1 cells overexpressing human PD-L1 (CHO-K1/hPD-L1); isotype control, EC50 given as N.A.

Chain of cynomolgus monkey PD-L1 on CHO-K1 cells overexpressing cynomolgus monkey PD-L1 (cynomolgus monkey) (G7PSE7 entry or part of it limits assumed): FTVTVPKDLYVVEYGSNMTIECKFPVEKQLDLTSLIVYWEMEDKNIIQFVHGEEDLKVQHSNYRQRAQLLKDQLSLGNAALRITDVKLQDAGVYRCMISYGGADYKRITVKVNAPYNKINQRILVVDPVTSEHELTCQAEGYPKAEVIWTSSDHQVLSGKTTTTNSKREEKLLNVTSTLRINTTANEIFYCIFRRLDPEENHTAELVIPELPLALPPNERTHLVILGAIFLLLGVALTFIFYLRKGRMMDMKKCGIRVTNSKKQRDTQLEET

- Maximum MFI [1]: 112 MFI
- Maximum MFI [2]: 595 MFI
- pEC50 [3]: 7.12
- Maximum MFI [4]: 123 MFI
- Maximum MFI [5]: 125 MFI
- Maximum MFI [6]: 86 MFI
Substance: hIgG1 (antibody)

Source: patent US20240269276A1
